In US5492821A, “Stabilized polyacrylic saccharide protein conjugates” (Cargill, Inc., priority 1991, dated 1996):

Columns and labels:
[1] = substrate: C[C@H](NC(=O)CCC(=O)O)C(=O)N[C@@H](C)C(=O)N1CCC[C@H]1C(=O)N[C@@H](Cc1ccccc1)C(=O)Nc1ccc([N+](=O)[O-])cc1; assay: Km and kcat of enzyme, Table 1; format: biochemical; conditions: other: 0.05M sodium phosphate buffer at pH 8 containing 10% methanol
Procedure: (§1) The yield of the active enzyme was determined by comparison of the relative activity of the native trypsin and the trypsin-polymer conjugate for N-succinyl-Ala-Ala-Pro-Phe p-nitroanilide as the substrate in 0.05M sodium phosphate buffer at pH 8 containing 10% methanol.
The procedure of EXAMPLE 8 (a) (i) was repeated in every essential detail except that BPN'-subtilisin was used instead of trypsin.

[2] = substrate: C[C@H](NC(=O)CCC(=O)O)C(=O)N[C@@H](C)C(=O)N1CCC[C@H]1C(=O)N[C@@H](Cc1ccccc1)C(=O)Nc1ccc([N+](=O)[O-])cc1; assay: Km and kcat of enzyme, Table 1; format: biochemical; conditions: other: 0.05M sodium phosphate buffer at pH 8 containing 10% methanol; remark: listed apart in the source
Procedure: as §1
The procedure of EXAMPLE 8 (a) (i) was repeated in every essential detail except that Carlsberg-subtilisin was used instead of trypsin.

| Protein | Km [1] [µM] | kcat [1] [s⁻¹] | Km [2] [µM] | kcat [2] [s⁻¹] |
| --- | --- | --- | --- | --- |
| BPN'-subtilisin (native) (Bacillus amyloliquefaciens) (protein) AQSVPYGVSQIKAPALHSQGYTGSNVKVAVIDSGIDSSHPDLKVAGGASMVPSETNPFQDNNSHGTHVAGTVAALNNSIGVLGVAPSASLYAVKVLGADGSGQYSWIINGIEWAIANNMDVINMSLGGPSGSAALKAAVDKAVASGVVVVAAAGNEGTSGSSSTVGYPGKYPSVIAVGAVDSSNQRASFSSVGPELDVMAPGVSIQSTLPGNKYGAYNGTSMASPHVAGAAALILSKHPNWTNTQVRSSLENTTTKLGDSFYYGKGLINVQAAAQ | 240 | 83 |  |  |
| Carlsberg-subtilisin (native) (Bacillus licheniformis) (protein) AQTVPYGIPLIKADKVQAQGFKGANVKVAVLDTGIQASHPDLNVVGGASFVAGEAYNTDGNGHGTHVAGTVAALDNTTGVLGVAPSVSLYAVKVLNSSGSGSYSGIVSGIEWATTNGMDVINMSLGGASGSTAMKQAVDNAYAKGVVVVAAAGNSGSSGNTNTIGYPAKYDSVIAVGAVDSNSNRASFSSVGAELEVMAPGAGVYSTYPTNTYATLNGTSMASPHVAGAAALILSKHPNLSASQVRNRLSSTATYLGSSFYYGKGLINVEAAAQ |  |  | 251 | 420 |
